Reference: the DeepSol protein solubility set

Assay: soluble on expression in E. coli; label from the status in PepcDB or PDB records
For “MGSDKIHHHHHHMRSMTDVRRYWISLLRKICEMPLELCASDRLKKSMPVEGKKSEERRKFTHLELLGRIFCGISPFLELNRESPSTDPEERKIATRLSEFAVKSLDVATNPNCKDYMNFKEGRQPLVDAAFLVEAILRAPKVLWEDLDVSTKKRLIRELKATRKIEPYFSNWLLFSAMIETFFFFAGEEWDSTKVDLILKNVESWYKGDGAYGDGPFFRWDYYNSFVIYPMTIDVLRIISEEKTEWKELYVKVLRRAQRYAVVLERMISPEGTFPIIGRSITYRTAVFHLLSQLSLLHLLPASLSPAQVRCALTAVLRRIFENPSTFDENGWLKIGVIGSQPSLGEEYITTGSLYLCTTVFLPLGLPTSDPFWRDPCKKWTNKKVWEGEDVAPDRALED”, the “soluble on expression in E. coli” value was “not soluble”.
With “MGSDKIHHHHHHMRTNVRLLAYRLLRKYEKEKFISREDVDSVLSFLDDRDRRFFKELVWGVVRKEELLDWYINQLLKKKDIPPAVRVALRMGAYQLLFMNSVPDYAAVSETVKLVKNENFKKLVNAVLRRLRTVPEPKELHLVYSHPEWIVNYWRSFLPEEAVLRIMKWNQEPLPVMLRVNSLAATKEEVIKILAEEGTEAVPGKHAPFSLIVRKLGVPMNDSRVINDGLASVQGESSQLVPFFMELRPGLRVLDTCAAPGGKTTAIAELMKDQGKILAVDISREKIQLVEKHAKRLKLSSIETKIADAERLTEYVQDTFDRVLVDAPCTSLGTARNHPEVLRRVNKEDFEKFSEIQLRMVQQAWQLLEKGGILLYSTCTVTKEENTEVVKRFVYEQKDVEVIDIRDKMKEFEVEGIWDGYGFLMLPDETITPFYISVLRKMG” the “soluble on expression in E. coli” value was “not soluble”.
For “MGSDKIHHHHHHMRTSLLYKIKEEERILPSKNLKGNEIIFILAFPDIYKYGLPNLGIQTLYKELYLRDDVAVDRYYTDEDQPFSFEYGFKLKDSDFIGISFQYEGIVLNAFKILKAGSIPLINLLREENDPIIIGGGPVANYNPLPLSLVCDVIVLGEAEEAIHKIIDSYKVYRNVKRKRMKFLQAVSQIEGIYVPCIHGFFQTGMVKQTSPVDINEHPAHSIFVTKNTVYEERVFSIEVRRGCTQRCRFCYMGHRLKPPRTLRWETFKKIVDLAIDQCNVEIIKLFYEGLETRIVEHYLEYIIKKGGRVRIGSQRLEKLSKRIIEIAAISGQRKITVAPETSGRLRKVIGKHEIKDEEILEVVRISSLYGIPDFGLYFILAIPGETFEDLDKIADLIMKVRHQMNKLKNTDGRLEIGINPLYPKPFTPFQYVKLPSLKNIEDRFLYIVEKVKKEGFPVVISNDVVDEKVEKRQKDENENESLVKFETTVFHPISLLQPMISRGGLEIAFLLHYLHSKRFNTVSDLENLLNEFGINAAWYFEEYIDKYCPWKIQKTLISEDYLLKEYFKALNFISTDEECKLNCSQCFNRCIDISTTNYQGGMSNA”, the “soluble on expression in E. coli” value was “not soluble”.
In the case of “MGSDKIHHHHHHMRVDVMVIGAGAAGMAAALKAKEEGAEVLLVERDERTGGILNQCIHNGFGLHYFRQELTGPEYAERFQEKMEKMGIRALTNAYVKRVEDRRVILVTEQGIEEVEVGALVYATGARERPFGSLMIPGDRPSGIFTAGVAQRLINIENRLPGKRALILGSGDIGLIMARRLTLEGMEVVGVVERLPYAGGLLRNVIQCLEDYNIPLYLSSTVVEVRGRERLEEVVVAKVDEQFRPIPRTERVFKVDTLVLSVGLIPQVELIENLVVKNPTSRGVGVSNIGQTSRDWIFSAGNCTVIFDLVDYVSYEGETAGRYAAKFVKGEIPREKIPVRPGKNVMVVHPIWYTPAEPLTLYLRVKKPMEKGRLVVGRFAREFEDLVPSEMLRVKISDRDLEGLDEIVVSVEEVN”, the “soluble on expression in E. coli” value is reported as “not soluble”.
In the case of “MGSDKIHHHHHHMRVLAIRHVEIEDLGMMEDIFREKNWSFDYLDTPKGEKLERPLEEYSLVVLLGGYMGAYEEEKYPFLKYEFQLIEEILKKEIPFLGICLGSQMLAKVLGASVYRGKNGEEIGWYFVEKVSDNKFFREFPDRLRVFQWHGDTFDLPRRATRVFTSEKYENQGFVYGKAVGLQFHIEVGARTMKRWIEAYKDELEKKKIDPRLLLETAEREEKVLKGLLRSLLERMVES”, the “soluble on expression in E. coli” value is reported as “not soluble”.
For “MGSDKIHHHHHHMRWIAPTEKDVAAATLEKRLWAAADELRANSGLKSAEYSQPILGLIFLKFADARFAVRRAELAKVTTGRRGSRVDDPASYHAEGVLFLASEARFSELLEFPEGGRDGKTLGQAVDDAMRAVERDNEQLAGVLPKTYQQFKARPLKELLKAFSAIPVDLEGDSFGKIYEYFLGEFAMAEGQGGGEFYTPQPIVRLMVEILEPFKGRVLDPACGSGGMFVQSARFVSEHKKNGGLAIHGVEKVDTTGQLCRMNLAVHGLEGDIRHGGEINSYYDDPHNAVGRFDFVLANPPFNVDKVDKDRIRDAVGPGRRFPFGVPNVDNANYLWIQLFYSALNESGRAGFVMASSAPDARASEQELRRKLIESRAVDVIISVGSKMFYTVALPCTLWFLDRGKPKDRRDKVLFIDAQHIYRQVDRAHRDWTEAQIGFLANVARLFRREEVDLTFGGAEAKYRLREVFGNKPTYADVAGFCKAATISEIEKQAWSLNPGRYVGAAQGEEVSDEDFRTQFEGLAEEFETLTAEAREFEKVITKTAAEILG”, the “soluble on expression in E. coli” value was “not soluble”.
For “MGSDKIHHHHHHMRYNCLYLIFKESRFVKIAIVANTSWNIYNFRLNLIHFFLAHKYEVVCIAPVDRHTEALTTLPVTFVPVEIDSKGNNPIKDARLVGKFLSIYKKHKPDVILQYTIKPNIYGTLAAKLCGIPTINTVTGLGTVFLHDTCITRLAQQLYAFSFKFATVAVFQNEDDRDIFVQKRIITHAKTQIIKGSGVNTTHFIPAKTYSKAFAFLMVARLLYDKGIREYAQAAKCLHEQHGNNVQCLLIGAIDSDKQLGINKEDVHAWANRHHLIYKPFDTAILKEYQQANVVVLPSYREGLSKSLLEAGACGKPLIASNVSGCKEIVIDNWNGYLCEAKDAGNLFDKMNLMLETSPEQLAEMGKNSRDFIEQNFSDKIISNDYFYLIKRVTESKKTNTNDIH”, the “soluble on expression in E. coli” value was “not soluble”.
With “MGSDKIHHHHHHMSADGSEYGRYFEQLQKVNLTVRLGDTGSFDGTAAITSLKGSLAWLELFGAEQPPPNTLSEGAEVSVSVWTGGALCRCDGRVETLRDDRQFAIRLVGRVRELQRREYFRLDVSIPFSYELLAGVSPEEAQERWLHERMDSWRSPAMVQEGSSWRVVDWNGRDIPSARANLSGGGMRFRVSEDVASGTLMLVSLFLPHPQPRVICVLAEALRCAEITLTLQAGTHYSLSMRFITISDKDREAVISYLFSEQRRELMSKSDRFQIGGRR” the “soluble on expression in E. coli” value was “not soluble”.
In the case of “MGSDKIHHHHHHMSARYLDPKKRHEFVFLFDVRDGNPNGDPDAGNLPRVDPETMHGLVTDVALKRKIRDYIALTREGKPRFAIFVQSRVALNRLILEGFQEAGIEPVSLQLAEEQMANESLLEHLDGLAEAGFSREGGTLYYSGQATTEKEIAKLLMGEEEAVAPFKKELEKLAKELAKAVKGRKITEEDRERAQAKLLERFFDIRMFGAVLSTGLNAGQVRGPVQLTFARSLDPIAPLEVSITRVAITREEDRARKETEMGRKPLVPYGLYRAHGFFNPFLAAKTGVQPEDLEALWDALQHLFELDRSAARGEMTVRGLAVFSHEDAKGNAPAHRLFGLIRVERREGVEAPRSFADYRVRAPKEGSLEAHGFPGVHLAWLVRPEGLEDLPPHVG”, the “soluble on expression in E. coli” value is reported as “not soluble”.
With “MGSDKIHHHHHHMSASIPETMKAVVIENGKAVVKQDIPIPELEEGFVLIKTVAVAGNPTDWKHIDFKIGPQGALLGCDAAGQIVKLGPNVDAARFAIGDYIYGVIHGASVRFPSNGAFAEYSAISSETAYKPAREFRLCGKDKLPEGPVKSLEGAVSLPVSLTTAGMILTHSFGLDMTWKPSKAQRDQPILFWGGATAVGQMLIQLAKKLNGFSKIIVVASRKHEKLLKEYGADELFDYHDADVIEQIKKKYNNIPYLVDCVSNTETIQQVYKCAADDLDATVVQLTVLTEKDIKEEDRRQNVSIEGTLLYLIGGNDVPFGTFTLPADPEYKEAAIKFIKFINPKINDGEIHHIPVKVYKNGLDDIPQL” the “soluble on expression in E. coli” value was “not soluble”.
